Data from paper PMC8065144.
“And” between values parts separate entries of the source, which are not always exact repeats. Equal values may be shown once.

Biological target: HA-tagged Glial Lazarillo (GLaz-HA) (Drosophila)
Assay: affinity purification on anti-HA beads and Western blot (bands of oligomers); GLaz-HA from larval brain extract concentrated on anti-HA beads, detected with anti-HA; the tetramers and dimers are destabilized into monomers by heat treatment or the reducing agent DTT

stoichiometry N: 4 and 2
Substance: HA-tagged Glial Lazarillo (GLaz-HA) (ligand)
